This note sets out measurements from publication PMC8599812 (Nucleic Acids Research, 2021).

For one data set, the target named is RECQ1T1,helix4A (human, UniProt P46063 49-616, F420A;F424A;S427A;S428A). As to the kind of experiment: fluorescence anisotropy.
The target of another data set is RECQ1T1 (human, UniProt P46063 49-616). As to the kind of experiment: fluorescence anisotropy.
Data set [1] has as its target T1, D2-Zn-WH (human, UniProt P46063 282-616). As to the kind of experiment: fluorescence anisotropy.
Data set [2] deals with T2, D2-Zn-WH helix4A (human, UniProt P46063 282-616, F420A;F424A;S427A;S428A). As to the kind of experiment: fluorescence anisotropy.
T2 sequence (P46063 282-616 F420A/F424A/S427A/S428A): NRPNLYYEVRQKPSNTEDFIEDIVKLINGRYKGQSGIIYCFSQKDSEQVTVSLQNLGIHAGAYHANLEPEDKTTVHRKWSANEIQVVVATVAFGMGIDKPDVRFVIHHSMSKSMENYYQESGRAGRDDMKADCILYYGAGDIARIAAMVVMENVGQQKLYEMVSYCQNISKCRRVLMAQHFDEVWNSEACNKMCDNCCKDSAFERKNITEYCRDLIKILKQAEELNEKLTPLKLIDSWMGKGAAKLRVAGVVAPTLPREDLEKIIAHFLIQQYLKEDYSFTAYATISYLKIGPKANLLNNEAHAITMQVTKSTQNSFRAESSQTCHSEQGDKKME
Data set [3] concerns the target T1, D2-Zn-WH. As to the kind of experiment: fluorescence anisotropy. The source holds these as a separate data set.
The data set “SEC” concerns the molecule itself. As to the kind of experiment: SEC.
Data set [4] deals with T1, D2-Zn-WH. As to the kind of experiment: fluorescence anisotropy. The source holds these as a separate data set.
The target of data set [5] is T2, D2-Zn-WH helix4A. As to the kind of experiment: fluorescence anisotropy. The source holds these as a separate data set.

Read-outs that look alike come from different tables or passages of the source.

B1: Fork30T_R_FL/Fork30T_F forked duplex (dsDNA)
DNA 1: TTTTTTTTTTTTTTTTTTTTTTTTTTTTTTCGTACCCGATGTGTTCGTTC
DNA 2: GAACGAACACATCGGGTACGTTTTTTTTTTTTTTTTTTTTTTTTTTTTTT
Take B1: the figures for the Kd with RECQ1T1,helix4A and in the data set with RECQ1T1 were 193 ± 27 nM and 87 ± 16 nM, respectively. As to GGATCTCGACGCTCTCCCTT (ssDNA) [Rec20_FL ssDNA 20-mer], the Kd in the data set with D2-Zn-WH [1] came to 1480 ± 110 nM.

B2: Rec20_FL/Rec20R 20 bp blunt duplex (dsDNA)
DNA 1: GGATCTCGACGCTCTCCCTT
DNA 2: AAGGGAGAGCGTCGAGATCC
Consider B2, for which the dissociation constant Kd with D2-Zn-WH helix4A [2] stood at 2080 ± 150 nM; in the data set with D2-Zn-WH [3], 1170 ± 120 nM.

B3: RECQ1^T1 (near full-length human RECQ1, amino acid 49–616) (enzyme, UniProt P46063 49-616, looked up)
chain: CLEDSDAGASNEYDSSPAAWNKEDFPWSGKVKDILQNVFKLEKFRPLQLETINVTMAGKEVFLVMPTGGGKSLCYQLPALCSDGFTLVICPLISLMEDQLMVLKQLGISATMLNASSSKEHVKWVHAEMVNKNSELKLIYVTPEKIAKSKMFMSRLEKAYEARRFTRIAVDEVHCCSQWGHDFRPDYKALGILKRQFPNASLIGLTATATNHVLTDAQKILCIEKCFTFTASFNRPNLYYEVRQKPSNTEDFIEDIVKLINGRYKGQSGIIYCFSQKDSEQVTVSLQNLGIHAGAYHANLEPEDKTTVHRKWSANEIQVVVATVAFGMGIDKPDVRFVIHHSMSKSMENYYQESGRAGRDDMKADCILYYGFGDIFRISSMVVMENVGQQKLYEMVSYCQNISKCRRVLMAQHFDEVWNSEACNKMCDNCCKDSAFERKNITEYCRDLIKILKQAEELNEKLTPLKLIDSWMGKGAAKLRVAGVVAPTLPREDLEKIIAHFLIQQYLKEDYSFTAYATISYLKIGPKANLLNNEAHAITMQVTKSTQNSFRAESSQTCHSEQGDKKME
For the molecule B3, the “stoichiometry N” value in “SEC” worked out at 2.

B4: Rec20_FL/Rec20R_3oh 20/10-mer 3' tailed duplex (dsDNA)
DNA 1: GGATCTCGACGCTCTCCCTT
DNA 2: GTCGAGATCC
As to B4, the values for the Kd in the data set with D2-Zn-WH [4] and in the data set with D2-Zn-WH helix4A [5] were 1970 ± 300 nM and 5.7 ± 1.1 µM, respectively.
